Data from patent publication US20230265208A1.

Tests used:
[1] = target: MUC1 on HCT116/MUC1 cells (human) (UniProt P15941); assay: flow cytometry on HCT116-MUC1 cells, 5 µg isotype control, 60 min on ice
[2] = target: MUC1 on HCT116/MUC1 cells (human) (UniProt P15941); assay: flow cytometry titration on HCT116/MUC1 cells; isotype control

Chain of MUC1 on HCT116/MUC1 cells (human) (P15941 24-1255): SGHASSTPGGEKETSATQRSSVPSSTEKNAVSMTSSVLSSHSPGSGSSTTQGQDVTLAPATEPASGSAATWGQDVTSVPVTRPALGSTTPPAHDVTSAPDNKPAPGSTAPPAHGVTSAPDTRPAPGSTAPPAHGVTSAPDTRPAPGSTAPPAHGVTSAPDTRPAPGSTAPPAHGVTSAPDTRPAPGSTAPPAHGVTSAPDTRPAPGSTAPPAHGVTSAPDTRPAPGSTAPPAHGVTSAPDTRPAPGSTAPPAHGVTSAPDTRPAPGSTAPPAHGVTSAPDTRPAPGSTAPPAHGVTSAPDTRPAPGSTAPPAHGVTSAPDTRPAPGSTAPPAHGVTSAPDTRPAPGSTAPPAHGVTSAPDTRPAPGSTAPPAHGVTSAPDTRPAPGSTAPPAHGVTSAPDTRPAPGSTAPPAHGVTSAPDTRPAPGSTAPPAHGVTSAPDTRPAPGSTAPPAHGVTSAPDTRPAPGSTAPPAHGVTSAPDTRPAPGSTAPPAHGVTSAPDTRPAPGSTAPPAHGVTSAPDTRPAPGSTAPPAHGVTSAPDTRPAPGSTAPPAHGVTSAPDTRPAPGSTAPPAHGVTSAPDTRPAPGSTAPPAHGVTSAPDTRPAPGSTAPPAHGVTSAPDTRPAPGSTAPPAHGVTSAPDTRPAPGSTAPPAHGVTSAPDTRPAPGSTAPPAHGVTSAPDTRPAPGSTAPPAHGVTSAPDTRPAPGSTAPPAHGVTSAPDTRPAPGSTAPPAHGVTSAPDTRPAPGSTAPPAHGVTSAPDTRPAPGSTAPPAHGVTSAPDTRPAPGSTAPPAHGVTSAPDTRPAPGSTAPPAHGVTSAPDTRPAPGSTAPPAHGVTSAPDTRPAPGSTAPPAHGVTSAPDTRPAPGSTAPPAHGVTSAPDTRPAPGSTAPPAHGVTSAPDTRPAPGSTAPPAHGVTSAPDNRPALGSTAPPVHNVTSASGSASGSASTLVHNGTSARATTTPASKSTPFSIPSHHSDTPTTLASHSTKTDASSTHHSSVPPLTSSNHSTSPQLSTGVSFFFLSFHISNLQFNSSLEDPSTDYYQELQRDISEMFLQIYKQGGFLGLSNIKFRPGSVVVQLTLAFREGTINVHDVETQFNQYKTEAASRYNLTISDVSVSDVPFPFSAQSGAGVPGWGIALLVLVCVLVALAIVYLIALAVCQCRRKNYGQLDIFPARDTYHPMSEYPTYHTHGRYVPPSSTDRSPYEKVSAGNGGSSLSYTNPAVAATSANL

Row | Substance | number over the gate bar (share of cells in the positive gate) [1] | EC50 [2] [nM]
1 | Control (antibody) | 0.6 | 
2 | Human IgG (antibody) |  | 0.292
